From US7462701

Molecular target: T1, Gly-Asp-Asp-Asp-Asp-Lys-β-naphthylamide
T1 chain: GDDDDK

B1: CBM-enterokinase produced transiently in lettuce and purified on cellulose (protein)
chain: MVATAKYGTPVIDGEIDEIWNTTEEIETKAVAMGSLDKNATAKVRVLWDENYLYVLAIVKDPVLNKDNSNPWEQDSVEIFIDENNHKTGYYEDDDAQFRVNYMNEQTFGTGGSPARFKTAVKLIEGGYIVEAAIKWKTIKPTPNTVIGFNIQVNDANEKGQRVGIISWSDPTNNSWRDPSKFGNLRLIK
  Enterokinase activity (rate of β-naphthylamine formation): Enterokinase activity was measured to be 442.7 cps/min/µg compared to blank 0.0001 cps/min/µg
